B1: "Na(+)/H(+) exchange regulatory cofactor NHE-RF1" (Oryctolagus cuniculus (Rabbit)), Q28619 (parent)
chain: MSADAAAGAPLPRLCCLEKGPNGYGFHLHGEKGKVGQYIRLVEPGSPAEKAGLLAGDRLVEVNGENVEKETHQQVVSRIRAALNAVRLLVVDPDTDEQFRKLGVQIRGELLRAQAGPEQAGPPAAPGEQGPAGENEPREVEKSHPERRELRPRLCAMKKGPNGYGFNLHSDKSRPGQFIRAVDPDSPAEASGLREQDRIVEVNGVCVEGKQHGDVVTAIKAGGDEAKLLVVDKETDEFFKKCKVVPSSEHLNGPLPEPFTNGEIQKNNPETLAPAASESPRPALARSASSDTSEELASQDSPKKEDSTAPSSTSSSSDPILDFSISLAVAKERAHQKRSSRRAPQMDWSEKKELFSNL

We go through three variants from IntAct's records for PubMed 10446210.

The variants in one assay derive from B1. To be noted: with Grk6, O70293-1.
Grk6, O70293-1, sequence (O70293 whole entry): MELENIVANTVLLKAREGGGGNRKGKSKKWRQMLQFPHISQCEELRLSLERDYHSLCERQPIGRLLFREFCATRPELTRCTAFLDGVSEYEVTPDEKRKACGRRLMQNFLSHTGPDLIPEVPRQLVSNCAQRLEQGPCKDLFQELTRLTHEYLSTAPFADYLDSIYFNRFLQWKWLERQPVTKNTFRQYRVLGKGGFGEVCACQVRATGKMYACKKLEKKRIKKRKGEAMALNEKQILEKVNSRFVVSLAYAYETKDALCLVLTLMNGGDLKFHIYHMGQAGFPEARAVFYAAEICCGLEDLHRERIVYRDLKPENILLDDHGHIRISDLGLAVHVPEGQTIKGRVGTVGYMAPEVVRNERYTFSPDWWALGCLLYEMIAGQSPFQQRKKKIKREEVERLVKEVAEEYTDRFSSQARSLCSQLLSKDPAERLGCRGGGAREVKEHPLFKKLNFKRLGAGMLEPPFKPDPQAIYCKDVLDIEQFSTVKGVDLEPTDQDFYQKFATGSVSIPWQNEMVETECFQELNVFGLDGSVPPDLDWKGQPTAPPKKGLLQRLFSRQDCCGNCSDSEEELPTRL
In the case of MSADAAAGAPLPRLCCLEKGPNGYGFHLHGEKGKVGQYIRLVEPGSPAEKAGLLAGDRLVEVNGENVEKETHQQVVSRIRAALNAVRLLVVDPDTDEQFRKLGVQIRGELLRAQAGPEQAGPPAAPGEQGPAGENEPREVEKSHPERRELRPRLCAMAKGPNGYGFNLHSDKSRPGQFIRAVDPDSPAEASGLREQDRIVEVNGVCVEGKQHGDVVTAIKAGGDEAKLLVVDKETDEFFKKCKVVPSSEHLNGPLPEPFTNGEIQKNNPETLAPAASESPRPALARSASSDTSEELASQDSPKKEDSTAPSSTSSSSDPILDFSISLAVAKERAHQKRSSRRAPQMDWSEKKELFSNL [K158A], the “effect of a mutation on the interaction” value was “decreasing interaction”. On to MSADAAAGAPLPRLCCLEKGPNGYGFHLHGEKGKVGQYIRLVEPGSPAEKAGLLAGDRLVEVNGENVEKETHQQVVSRIRAALNAVRLLVVDPDTDEQFRKLGVQIRGELLRAQAGPEQAGPPAAPGEQGPAGENEPREVEKSHPERRELRPRLCAMKAGPNGYGFNLHSDKSRPGQFIRAVDPDSPAEASGLREQDRIVEVNGVCVEGKQHGDVVTAIKAGGDEAKLLVVDKETDEFFKKCKVVPSSEHLNGPLPEPFTNGEIQKNNPETLAPAASESPRPALARSASSDTSEELASQDSPKKEDSTAPSSTSSSSDPILDFSISLAVAKERAHQKRSSRRAPQMDWSEKKELFSNL [K159A], for which the “effect of a mutation on the interaction” value is given as “decreasing interaction”.

Variants of B1 are the subject of the next assay. The following applies: with Grk6, O70293-1. The source holds these as a separate data set.
For the variant MSADAAAGAPLPRLCCLEKGPNGYGFHLHGEKGKVGQYIRLVEPGSPAEKAGLLAGDRLVEVNGENVEKETHQQVVSRIRAALNAVRLLVVDPDTDEQFRKLGVQIRGELLRAQAGPEQAGPPAAPGEQGPAGENEPREVEKSHPERRELRPRLCAMKKGPNGYGFNLHSDKSRPGQFIRAVDPDSPAEASGLREQDRIVEVNGVCVEGKQHGDVVTAIKAGGDEAKLLVVDKETDEFFKKCKVVPSSEHLNGPLPEPFTNGEIQKNNPETLAPAASESPRPALARSAASDTSEELASQDSPKKEDSTAPSSTSSSSDPILDFSISLAVAKERAHQKRSSRRAPQMDWSEKKELFSNL [S289A], the “effect of a mutation on the interaction” value is on record as “disrupting interaction”.
